Assay results from publication PMC3618048, “A Novel Alkaliphilic Bacillus Esterase Belongs to the 13th Bacterial Lipolytic Enzyme Family” (PLoS ONE, 2013).
Each block holds one molecule with its values, some of them ahead of it.

How the values were obtained:
[1] = molecular target: esterase EstOF4 from Bacillus pseudofirmus OF4 (Bacillus pseudofirmus OF4); assay: SEC; Superdex200 10/30 column calibrated with cytochrome C, carbonic anhydrase, bovine serum albumin and alcohol dehydrogenase; native molecular weight of purified EstOF4
purified protein [2] = substrate: CCCCCCCC(=O)Oc1ccc([N+](=O)[O-])cc1; assay: purified protein; format: biochemical, Alkalihalophilus pseudofirmus; details: 50 mM Tris-HCl pH 8.5, 50 °C
purified protein [3] = substrate: CCCCCCCCCCCC(=O)Oc1ccc([N+](=O)[O-])cc1; assay: purified protein; format: biochemical, Alkalihalophilus pseudofirmus; details: 50 mM Tris-HCl pH 8.5, 50 °C
purified protein [4] = substrate: CCCCCC(=O)Oc1ccc([N+](=O)[O-])cc1; assay: purified protein; format: biochemical, Alkalihalophilus pseudofirmus; details: 50 mM Tris-HCl pH 8.5, 50 °C
purified protein [5] = substrate: CCCC(=O)Oc1ccc([N+](=O)[O-])cc1; assay: purified protein; format: biochemical, Alkalihalophilus pseudofirmus; details: 50 mM Tris-HCl pH 8.5, 50 °C
purified protein [6] = substrate: CCC(=O)Oc1ccc([N+](=O)[O-])cc1; assay: purified protein; format: biochemical, Alkalihalophilus pseudofirmus; details: 50 mM Tris-HCl pH 8.5, 50 °C
purified protein [7] = substrate: CC(=O)Oc1ccc([N+](=O)[O-])cc1; assay: purified protein; format: biochemical, Alkalihalophilus pseudofirmus; details: 50 mM Tris-HCl pH 8.5, 50 °C
purified protein [8] = substrate: CCCCCCCCCC(=O)Oc1ccc([N+](=O)[O-])cc1; assay: purified protein; format: biochemical, Alkalihalophilus pseudofirmus; details: 50 mM Tris-HCl pH 8.5, 50 °C

stoichiometry N [1]: 2
Molecule: esterase EstOF4 from Bacillus pseudofirmus OF4 (enzyme)

B1: EstOF4 (Alkalihalophilus pseudofirmus OF4) (protein)
chain: MKVVAPKPFTFEGGDRAVLLLHGFTGTTADVRMIGRHLQKEGYTCHAPLYKGHGVPPEELVHTGPEDWWKDVEAGYNYLKEKGHEEIAVCGLSLGGVFSLKIGYTLPVKGIVPMCAPVRPKTEDAMYKGVLAYAREYKKREQKSDDVINQEMEAFKPMGTLSALGELIQDVHNHLDHIYSPTFVVQARNDEMIDVESANIIHDQIESDEKSLKWYEESGHVITLDKEKEQLHEDILQFLEGLDWTV
notes: full-length ORF (246 aa, 741 bp, no signal peptide), pET-28a NdeI/BamHI, N-terminal His tag, E. coli BL21(DE3); about 35 kDa SDS-PAGE, 64 kDa native dimer
Km (purified protein [2]): 102 ± 3 µM | kcat (purified protein [2]): 1.75 ± 0.0333 s⁻¹ | kcat/Km (purified protein [2]): 16700 M⁻¹ s⁻¹ | Km (purified protein [3]): 42 ± 5 µM | kcat (purified protein [3]): 0.1 ± 0.0167 s⁻¹ | kcat/Km (purified protein [3]): 1670 M⁻¹ s⁻¹ | Km (purified protein [4]): 60 ± 6 µM | kcat (purified protein [4]): 5.48 ± 0.1 s⁻¹ | kcat/Km (purified protein [4]): 91700 M⁻¹ s⁻¹ | Km (purified protein [5]): 90 ± 9 µM | kcat (purified protein [5]): 3.65 ± 0.0667 s⁻¹ | kcat/Km (purified protein [5]): 40000 M⁻¹ s⁻¹ | Km (purified protein [6]): 94 ± 9 µM | kcat (purified protein [6]): 3.52 ± 0.0667 s⁻¹ | kcat/Km (purified protein [6]): 38300 M⁻¹ s⁻¹ | Km (purified protein [7]): 37 ± 6 µM | kcat (purified protein [7]): 2.07 ± 0.0667 s⁻¹ | kcat/Km (purified protein [7]): 56700 M⁻¹ s⁻¹ | Km (purified protein [8]): 173 ± 8 µM | kcat (purified protein [8]): 1.17 ± 0.0667 s⁻¹ | kcat/Km (purified protein [8]): 6670 M⁻¹ s⁻¹
